Assay results from patent US20240059789A1 (Janssen / Centocor, published 2024).

T1: Avi-6xHis-GS-cyno PSMA ECD (PSMW1) (Macaca fascicularis, UniProt Q04609 48-750 (human entry))
T1 construct: also called PSMW1.009; cy PSMA
T1 chain: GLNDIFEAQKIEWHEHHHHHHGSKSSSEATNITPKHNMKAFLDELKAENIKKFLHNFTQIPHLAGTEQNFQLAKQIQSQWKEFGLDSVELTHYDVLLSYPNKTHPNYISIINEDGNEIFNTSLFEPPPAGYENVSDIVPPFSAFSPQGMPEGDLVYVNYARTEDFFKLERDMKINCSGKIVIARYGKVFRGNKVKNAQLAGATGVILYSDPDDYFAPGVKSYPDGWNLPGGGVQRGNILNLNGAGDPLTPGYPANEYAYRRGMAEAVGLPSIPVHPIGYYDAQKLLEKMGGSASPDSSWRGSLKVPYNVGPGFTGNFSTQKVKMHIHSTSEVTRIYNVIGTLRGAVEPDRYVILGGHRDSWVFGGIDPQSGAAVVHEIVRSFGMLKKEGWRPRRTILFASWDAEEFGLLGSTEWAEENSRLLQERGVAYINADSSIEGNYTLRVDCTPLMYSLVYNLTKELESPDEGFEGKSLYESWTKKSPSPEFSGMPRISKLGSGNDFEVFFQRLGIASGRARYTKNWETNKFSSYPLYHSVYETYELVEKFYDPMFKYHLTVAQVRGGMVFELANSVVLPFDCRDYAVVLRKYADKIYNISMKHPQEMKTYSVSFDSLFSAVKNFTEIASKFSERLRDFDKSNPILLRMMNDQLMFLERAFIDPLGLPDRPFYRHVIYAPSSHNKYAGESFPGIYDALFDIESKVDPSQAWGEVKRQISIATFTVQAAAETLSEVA

B1: PSMB895 (antibody, human IgG1, lambda, L234A L235A, V domains shown)
VH: EVQLVESGGGLVQPGGSLRLSCAASGFTFSSYAMSWVRQAPGKGLEWVSAISGGIGSTYYADSVKGRFTISRDNSKNTLWLQMNSLRAEDTAVYYCAKDGVGATPYYFDYWGQGTLVTVSS
VL: QSVLTQPPSVSAAPGQKVTISCSGSSSNIGNNYVSWYQQLPGTAPKLLIYDNNKRPSGIPDRFSGSKSGTSATLGITGLQTGDEADYYCGTWDSSLSAYVFGTGTKVTVLG
B2: PSMB896 (antibody, human IgG1, lambda, L234A L235A, V domains shown)
VH: EVQLVESGGGLVQPGGSLRLSCAASGFTFSSYAMSWVRQAPGKGLEWVSAISGGIGSTYYADSVKGRFTISRDNSKNTLWLQMNSLRAEDTAVYYCAKDGVGATPYYFDYWGQGTLVTVSS
VL: QSVLTQPPSVSAAPGQKVTISCSGSSSNIGINYVSWYQQLPGTAPKLLIYDNNKRPSGIPDRFSGSKSGTSATLGITGLQTGDEADYYCGTWDSSLSAVVFGGGTKLTVLG
B3: PSMB899 (antibody, human IgG1, lambda, L234A L235A, V domains shown)
VH: EVQLVESGGGLVQPGGSLRLSCTASGFIFSSYAMSWVRQAPGKGLEWVSAISGGYGAPYYADTVKGRFTISRDNSKNTLYLQMNSLRAEDTAVYYCAKDGVGATPYYFDDWGQGILVTVSS
VL: QSVLTQPPSVSAAPGQKVTISCSGSSSNIGNNYVSWYQQLPGTAPKLLIFDNNKRPSGIPDRFSGSKSGTSATLGITGLQTGDEADYYCGTWDSSLSAYVFGTGTKVTVLG
B4: PSMB898 (antibody, human IgG1, lambda, L234A L235A, V domains shown)
VH: EVQLVESGGGLVQPGGSLRLSCAASGFTFSSYAMSWVRQAPGKGLEWVSAISGGSGSTYYADSVKGRFTISRDNSKNTLYLQMNSLRAEDSAVYYCAKDGVGATPYYFDYWGQGTLVTVSS
VL: QSVLTQPPSVSAAPGQKVTISCSGSSSNIGINYVSWYQQLPGTAPKLLIYDNNKRPSGIPDRFSGSKSGTSATLGITGLQTGDEADYYCGTWDSSLSAVVFGGGTKLTVLG
B5: PSMB897 (antibody, human IgG1, lambda, L234A L235A, V domains shown)
VH: EVQLVESGGGLVQPGGSLRLSCAASGFTFSSYAMSWVRQAPGKGLEWVSAISGGSGSTYYADSVKGRFTISRDNSKNTLYLQMNSLRAEDSAVYYCAKDGVGATPYYFDYWGQGTLVTVSS
VL: QSVLTQPPSVSAAPGQKVTISCSGSSSNIGNNYVSWYQQLPGTAPKLLIYDNNKRPSGIPDRFSGSKSGTSATLGITGLQTGDEADYYCGTWDSSLSAYVFGTGTKVTVLG
B6: PSMB1069 (bispecific antibody, human IgG1, kappa, L234A L235A)
heavy: not shown
light: not shown
chain: QVQLVESGGGEVQPGRSLRLSCAASGFSFSGYGMHWVRQAPGKGLEWVAVMSYDGSNRFYVDSVRGRFSISRDNSKNTLYLQMNSLRPEDTAVYYCARDTVWGSHPDAFDIWGQGTVVTVSSGGSEGKSSGSGSESKSTGGSQSVLTQPPSVSVAPGQTARITCGGNNSGSKSVHWYQQKPGQAPVLVVYDDSDRPSGIPERFSGSNSGNTATLTISRVEAGDEADYYCQVWDSSSDHGVFGGGTKLTVLEPKSSDKTHTCPPCPAPEAAGGPSVFLFPPKPKDTLMISRTPEVTCVVVSVSHEDPEVKFNWYVDGVEVHNAKTKPREEQYNSTYRVVSVLTVLHQDWLNGKEYKCKVSNKALPAPIEKTISKAKGQPREPQVYVLPPSREEMTKNQVSLLCLVKGFYPSDIAVEWESNGQPENNYLTWPPVLDSDGSFFLYSKLTVDKSRWQQGNVFSCSVMHEALHNHYTQKSLSLSPG
notes: Null CD3 arm; one PSMA scFv; also called HC1 (ZWA): B23B62-Fab
B7: PSMB891 (antibody, human IgG1, lambda, L234A L235A, V domains shown)
VH: EVQLVESGGGVVQPGRSLRLSCAASGFTFITYGMHWVRQAPGKGLEWVAVVSFDESNKYYADSVKGRFTISRDNSKNTLYLQMNSLRAEDTAVYYCARALRDGNNWDYFNGMDVWGQGTTVTVSS
VL: not shown
B8: PSMB892 (antibody, human IgG1, lambda, L234A L235A, V domains shown)
VH: EVQLVESGGGVVQPGRSLRLSCAASGFTFITYGMHWVRQAPGKGLEWVAVVSFDESNKYYADSVKGRFTISRDNSKNTLYLQMNSLRAEDTAVYYCARALRDGNNWDYFNGMDVWGQGTTVTVSS
VL: QSVLTQPPSVSGAPGQRVTISCTGSSSNIGADYDVHWYQHLPGTAPKLLIYGNSNRPSGVPDRFSGSKSGTSASLAITGLQAEDETDYYCQSYDSSLSGWVFGGGTKLTVLG
B9: PSMB890 (antibody, human IgG1, lambda, L234A L235A, V domains shown)
VH: EVQLVESGGGLVKPGGSLRLSCAASGFTFSRYNMNWVRQAPGKGLEWVSSINSNSRYIYYADSVKGRFTISRDSAKNSLYLQMNSLRAEDTAVYYCAKTMGDYYYYYGMDVWGQGTTVTVSS
VL: SSELTQPPSVSGAPGQRVTISCAGSLSNIGAGYDVHWYQQLPGTAPKLLIYGNINRLSGVPERFSGSKSGTSASLAITGLQAEDGADYYCQSYDSSLSSYVFGTGTKVTVLG

Experiments:
[1] = biological target: T2, Human PSMA on prostate cancer cell lines (C4-2B, 22RV1) (human, UniProt Q04609 1-750); assay: flow cytometry on 22RV1 cells
T2 construct: Endogenous PSMA of the human cell lines; also called PSMA+ cells; PSMA-expressing cell lines
T2 sequence (Q04609 whole entry): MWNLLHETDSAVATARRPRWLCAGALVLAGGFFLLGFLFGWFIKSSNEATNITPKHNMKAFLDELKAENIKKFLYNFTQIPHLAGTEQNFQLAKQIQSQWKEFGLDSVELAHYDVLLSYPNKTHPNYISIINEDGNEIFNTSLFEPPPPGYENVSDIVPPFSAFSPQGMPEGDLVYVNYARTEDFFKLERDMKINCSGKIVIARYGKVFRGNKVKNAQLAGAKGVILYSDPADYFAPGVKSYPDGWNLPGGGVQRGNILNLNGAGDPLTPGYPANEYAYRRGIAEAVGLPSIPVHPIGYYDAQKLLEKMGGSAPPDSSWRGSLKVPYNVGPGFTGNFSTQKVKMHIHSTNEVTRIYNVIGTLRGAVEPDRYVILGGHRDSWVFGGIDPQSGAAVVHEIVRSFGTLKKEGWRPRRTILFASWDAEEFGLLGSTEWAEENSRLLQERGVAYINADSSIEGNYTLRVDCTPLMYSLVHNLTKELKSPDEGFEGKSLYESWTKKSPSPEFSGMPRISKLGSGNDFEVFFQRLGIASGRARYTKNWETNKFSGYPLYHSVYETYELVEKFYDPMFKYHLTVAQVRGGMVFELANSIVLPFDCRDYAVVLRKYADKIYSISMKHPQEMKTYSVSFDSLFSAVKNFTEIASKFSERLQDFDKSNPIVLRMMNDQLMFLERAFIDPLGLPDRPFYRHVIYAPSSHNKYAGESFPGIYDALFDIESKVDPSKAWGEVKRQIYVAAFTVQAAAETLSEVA
Description: (§1) Selected anti-PSMA antibodies were evaluated for binding to commercial prostate cancer cell lines. C4-2B cells were originally developed at MD Anderson and are derived from LNCaP FGC grown in vivo and metastasize to bone marrow (Thalmann, et al 1994, Cancer Research 54, 2577-81). 22Rv1 cells are a human prostate carcinoma epithelial cell line derived from a xenograft that was serially propagated in mice after castration-induced regression and relapse of the parental, androgen-dependent CWR22 xenograft. 22RV1 and C4-2B cells were plated at 50,000 cells per well in 50 μl of assay medium (RPMI, 10% HI FBS) in V bottom plates. Serial dilutions of antibodies were prepared in assay medium with 50 μl of antibody dilutions added to the plates containing cells. The plates were incubated for 60 min at 37° C. at which time 100 μl of staining buffer (Becton Dickinson Cat #554657) was added to all wells of each plate. The plates were centrifuged at 300×G for 5 minutes and the medium was removed from the wells. 200 μl of staining buffer was added to all wells of each plate. The plates were centrifuged at 300×G for 5 minutes and the medium was removed from the wells. 50 μl of 2 μg/ml AlexaFluor647-labeled goat anti-human Fc was added to all wells of the plates and the plates were incubated for 30 minutes at 4° C. 150 μl of staining buffer was added to all wells of each plate. The plates were centrifuged at 300×G for 5 minutes and the medium was removed from the wells.

[2] = biological target: T2, Human PSMA on prostate cancer cell …; assay: flow cytometry on C4-2B cells
Description: as §1

[3] = biological target: T3, Human PSMA ECD (Lys44-Ala750), N-6xHis (PSMW39) (human, UniProt Q04609 44-750); assay: SPR Biacore 8K, mAb captured by anti-Fc, antigen in solution
T3 construct: also called PSMW39.002; hu PSMA
T3 sequence (Q04609 other isoform, or with tags, fused parts or gaps): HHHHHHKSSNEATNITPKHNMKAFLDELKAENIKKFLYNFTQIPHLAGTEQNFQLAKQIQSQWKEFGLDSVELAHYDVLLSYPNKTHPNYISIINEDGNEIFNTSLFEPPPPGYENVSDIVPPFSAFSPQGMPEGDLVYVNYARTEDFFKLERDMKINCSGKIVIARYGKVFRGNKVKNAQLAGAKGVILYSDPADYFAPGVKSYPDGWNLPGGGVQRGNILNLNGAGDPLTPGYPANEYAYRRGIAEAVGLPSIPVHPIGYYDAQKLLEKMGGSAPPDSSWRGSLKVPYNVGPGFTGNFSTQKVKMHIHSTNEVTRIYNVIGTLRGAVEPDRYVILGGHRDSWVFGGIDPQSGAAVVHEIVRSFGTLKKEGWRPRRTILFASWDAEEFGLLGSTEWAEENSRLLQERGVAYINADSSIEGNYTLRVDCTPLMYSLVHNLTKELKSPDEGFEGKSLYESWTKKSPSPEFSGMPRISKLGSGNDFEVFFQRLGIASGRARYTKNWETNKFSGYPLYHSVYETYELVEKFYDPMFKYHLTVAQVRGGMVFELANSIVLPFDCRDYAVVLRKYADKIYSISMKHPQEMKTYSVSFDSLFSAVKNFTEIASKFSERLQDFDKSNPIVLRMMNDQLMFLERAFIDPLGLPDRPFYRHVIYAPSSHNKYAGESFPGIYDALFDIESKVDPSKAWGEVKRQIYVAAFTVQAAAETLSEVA
Description: (§2) The association and dissociation were monitored for 3 and 15 minutes, respectively, using a flow rate of 50 μL/min. Raw binding data was referenced by subtracting the analyte binding signals from blanks and analyzed using a 1:1 Langmuir binding model using the Biacore Insight evaluation software to obtain the kinetics, which were used to calculate the binding affinity. The anti-PSMA were captured using an anti-human Fc antibody and the antigens were injected in solution.

[4] = biological target: T1, Avi-6xHis-GS-cyno PSMA ECD (PSMW1); assay: as above
Description: as §2

[5] = biological target: Avi-6xHis-GS-mouse PSMA (45-752) (PSMW29) (Mus musculus, UniProt O35409 45-752); assay: as above
Description: as §2

[6] = biological target: T2, Human PSMA on prostate cancer cell …; assay: binding curves on C4-2B cells, 37 C, 1 h incubation, four-parameter fit
Description: Molecule concentrations ranged from 500-0 nM over 12-points at 3-fold dilution. […] Values reported in the Table 32 were generated by fitting the data to a four-parameter function for ligand binding generating values for y-min, y-max, EC50, and Hill. EC90 were calculated using the equation EC90=(90[…](100−90))\hat{ }(1/Hill)*EC50.

[7] = biological target: T2, Human PSMA on prostate cancer cell …; assay: flow cytometry on 22RV1 cells; 22RV1 cells

Binder | EC50 [1] [nM] | EC50 [2] [nM] | Kd [3] [nM] | Kd [4] [nM] | Kd [5] [nM] | fold binding signal (Y-max) over the average of the molecules [6] [fold] | EC50 [7] [nM]
B1 | 1.71 | 5.09 | 0.704 | 2.83 |  |  | 
B2 | 1.24 | 25.8 | ≤ 0.0876 | 0.658 | 1.36 |  | 
B3 | 1.02 | 5.58 | 0.132 | 1.47 |  |  | 
B4 | 2.07 | 6.53 | 0.333 | 1.19 |  |  | 
B5 | 2.26 | 4.76 | 1.28 | 3.93 |  |  | 
B6 |  |  |  |  |  | 2 | 
B7 | 0.554 | 1.99 | ≤ 0.253 | ≤ 0.21 |  |  | 
B8 |  | 22.4 | 3.22 | 5.67 | 0.404 |  | > 60
B9 | 1.71 | 0.941 |  |  |  |  | 
